Measured values: the DeepSol protein solubility set

Experiment: soluble on expression in E. coli; label from the status in PepcDB or PDB records

Sequence | soluble on expression in E. coli
SLLEIDNQTPLESDFSLLEKIAKFLAPTQIIELVLVSDETMREINRDLRGCDYVTDVLSFPLEAIPHTPLGSVVINAPLAQENALKLGHRLEEEIALLFIHGVLHLLGYDHEKDKGEQRQKESELIKAFNLPLSLIERTQD | soluble
MGSDKIHHHHHHMTIALTGGGTGGHLAIVRCLLESAIKKNIECVYIGSQNGQDKAWFENEVRFKEKFFLSSKGVVNQSKFDKISSLLHTLKLSKDCREIFKKYHIQAVFSVGGYSAAPASFAALFSHLPLFIHEQNSKSGSLNMLLKPFATKFFSAFEKEISPYPVADKFFDNARIRKELKNIIFLGGSQGAQFINELALNLAPKLQEQNIKIIHQCGKNDFEKCKKHYQSLNIQADIFDFSLNLEEKMKNADLAISRAGASTLFELCANTLPTIFIPYPYAAKNHQYFNAKFLQDQALCQIFMQNSINLDEFFKSILKLNLENISTRLQNITQKNGADMLIQKALFDNLTFIR | not soluble
MSLEQLVLAIDLGTSGCKCALVSMEVDIRSWAFHGVPLHVSGLSAEQEPEDWWNAFMLGAHELLGADPLRRRQVVAICCSTQSEGTVCVDRNGAAIGRALLWLDKRGADSIKQRMGGGWCNLGGYGPLKLWRSLRLTGGVASLSGMDSAGHMAYILDHDPARYEKTHKFLNVLDYMNMRLSGRYCATGDSMLTAWITDNRDPHRIRYDDGLIRALGIDAGKLPELVGSTEVIGTLKPELADVLGLPRSTPVVAGAVDTSAVAVGATVRDFAPHLYLGTSSWVGAHVPFKKSSVRHHIAAVPSAVKGRYLAMAMQSAAGANLSFLRDKVLYHPDELLSDEQQPDVYALLDRIAARVPPGSRGLIYTPWLCGERSPVGDPSLRAGLINLKLEHSREDIIRAFMEGVAHNTRWMLEPFSRFIGQSSEIIVATGGGAQSDVWCQIMADVCGRVIQQPHNPIQTNARGAAFIAAVALGKLQFNDLPTLQRPHRLYEPSRSTRNLYDNRFATFKEVRKRLAPLYRRLNPSQETTEGHHHHHH | not soluble
MIDLENQEREIINLMFSQRISWLAAVRIRHKLSLAEVSKMLGISINSLKQIEKTERLSSNIKSKMAEIYGCPPELLICPSWMTAEHK | not soluble
MLRSAVSALYRASRSFSETVPRLSATPLGKQEPQLSLSYTCKVCNSREGPKTFAKSSYEKGVVIVTCSGCHNHHIIADNIGWFEDFKGKNIEDHLKTRGEAVKRRDTIKNENGIFEIQK | not soluble
MITPKVLSGFKDRLPKDAIQKAQLLAKVSVVFQSFGFVPIETPHLEYAQTLLPDASSDIQKEIYRFKDHGDRDVALRFDLTVPLARFVSLHHQTLGMPFKRYAIGNVFRGERAQKGRYREFTQCDFDFIGSESLVCDAEIIQVIVASLKALDLEDFCVSINHRKILNGICEYFGISQVNEALRIVDKLEKIGLNGVEEELKKECGLNSNTIKELLELIQIKQNDLSHAEFFEKIAYLKDYNENLKKGIQDLERLYQLLGDLQISQNLYKIDFSIARGLGYYTGIVYETTLNEMKSLGSVCSGGRYDHLTKNFSKENLQGVGASIGIDRLIVALSEMQLLDERSTQAKVLIACMHEEYFSYANRLAESLRQSGIFSEVYPEAQKIKKPFSYANHKGHEFVAVIGEEEFKSETLSLKNMHSGMQLNCLSFLKALEIIGENDEDL | not soluble
MSLNTLLMHCRPGFEGEVCAEIAEHAATLEIPGYAKSKPASAHVEFVCQDADGAERLMRRLRFADLIFPRQWARGPGFIELPESQRIEVLLAELASYPVCGSLWLEVLDTNAGKEVSTFCRKFEKPLRAALVKAGRLQEDPALPRLLLTFRSGREVFVGLAEPRNSALWPMGIPRLKFPREAPSRSTLKLEEAWHQFIPRSEWDKRLAPDMLAVDLGAAPGGWTWQLVNREMRVTAVDNGPMAENLMYSGLVDHQKVDGYQYRPRQRVDWMVCDIVEKPARTGALIETWIGEGLCREAVVNLKLPMKQRYAEVRKILQRLRESFDARGLKVAIGCKQLYHDREEVTCHLRRLEREGGSHHHHHH | soluble
VEAHPSLTLFSQLRIEHEDMAIAEDDWAWLRHKGHLRLGAALDETSPFNVRLDDENYEGITADVATLVGQLLGMRIKVVSFDTHADAVAALAAGKIDLLGSHYSSAGDSSLVLSQPYARDRLAVFKRMGEKRNSPEDLAGLSVAVAREHVGELRQRFPRARFVVFGSHDEAVAAVAFGHTDLYLDDVLSAYHRINRSYYGYVRFERFADARLEGGYGFLLRRGDTNLLRVVNSAIGAINQDRLESIARRWVGSGSLPTGQRIALTPQESRWIARHPVVRLVINDDLAPLAFFNSDETFSGIASDLLDMISRRTGLHFQVTPRSGGFPEQIGVLARKEADLAIMSRSSKREEMLRFTRSFLSTSYVLVTRADDKGRAEIPGSLDGKRIAIPAGHVGMQQVRERYPQASMVEVGVALDAMNLVYEGRADAAVVPLVTARYYIVRLFRERLAIADLVPIGAATAHFAVRRGDAELQSILDKALLSISPDDLSDIVNRW | not soluble
ATKQAIEKDPWLSPEQKKAQKEKAKARLDEGLKALKAADSLEILKVTEEAFVDKEKNPDSIPNQHKAGTADQARKQALDSL | not soluble
MAVVMNWNNFSTNWDLKLLSLILAVIVWGGVSGGRTAELELTVPLELRNLPPGFSVASAVPTEASVTVAGPKILLLKLRSERIIIPLDARGVGEGTTLFTGLERRLGLPREATITRLFPATVEVRLIRSKTVQKPLEHHHHHH | not soluble
MGSDKIHHHHHHMNIQDYPDRDMLAIDLANHLAGELEATLFTHDSATLAVAGGTTPGPVFDVLCAADLDWHRVMVLPTDERCVPQDHSRANARLIAERLLVNRAASARYLPLYLPGAEPEDCLAEVEALLTPALPLSVLVLGMGEDMHTASLFAGMPGLAAALDADAPALAVARPETQPENRITLTAPVLNGALSKHLIIYGAAKRKALERAMSMHPEEAPIAAVLDGITVHWAE | not soluble
MSNLNNLTSKILNDAEEKKKYILADAEAQKDKIISKKTNRAEADKEEIITKANIEAEVKKARIISNAKLSVRNDMLRAKQDVISKVFNEAIEKLQNLSNGDYKYYVISTLDSLELEGTEVIIINEKDKDIFSNEFLEALNKELESKGKKGSITLNMEGKFNGGFILDRNGIQINNTFEALINSLRGELEFEVNKVLFDLEHHHHHH | soluble
MGQRKYGGPPPGWDSTPPERGCEIFIGKLPRDLFEDELIPLCEKIGKIYEMRLMMDFNGNNRGYAFVTFSNKQEAKNAIKQLNNYEIRTGRLLGVCASVDNCRLFVGGIPKTKKREEILSEMKKVTEGVVDVIVYPSAADKTKNRGFAFVEYESHRAAAMARRRLLPGRIQLWGHPIAVDWAEPEVEVDEDTMSSVKILYVRNLMLSTSEEMIEKEFNSIKPGAVERVKKIRDYAFVHFSNREDAVEAMKALNGKVLDGSPIEVTLAKPVDKDSYVRYTRGTGGRNTMLQGEYTYPLSHVYDTTTTYLGAPVFYTPQAYAAIPSLHFPATKGHLSNRALIRTPSVRGNTS | soluble
MGSDKIHHHHHHMQTIQLSNIFKQQAHQTILKDFTLTIPAQSNIGIQMSHVEATTLFNLLRQTTPQTSGVMTGLTPARIQAIFHDDGFYPQLTVSTYLKTFQHISTFETDLDDILQYFALKDVAHTKIKHLSFDQQQRLALLRAFILQPDLLLIESPLTNLTNAGIELYLAALAYTREHGVTVLLTSYSLEELVLTSTTIFRYRPNQGLELTDLATESSSDSAHTSEDTPRPIFKIASKVEDKTVFFSPNEIDFIESVNGVSQLNVSGEQFTSSQTMSELEQQLTTLGFFRCHRSYLVNLQQIAELISYSRNSYTLILKNKSKLPLSRGKLTDLKALINF | not soluble
MEEAKQKVVDFLNSKSGSKSKFYFNDFTDLFPDMKQREVKKILTALVNDEVLEYWSSGSTTMYGLKGAGKQAAAEHED | soluble
MIIIMAGGKSSRMGREKPVLKIAGKEMLLWVYEQAEAVGEVLVALSRHTPRTRELCLREGIEFVDTPGRGYVKDVQWLLREFGPFISLSSDIPFVKSSDIYSLLKEFDGKVSLTGVLPLEVVPKDLTPYSYMGYAIVGINGVAKEGEKFFVFSNPLLALNVNTPRELELAKRVAEIIRVRGIR | soluble
MGSDKIHHHHHHMNYLEAEDLTTGYGRQVISEALNCSFEAGTITSIIGPNGCGKSTLLKTLARILPAEKGKVFIKNQELQHFSSKEVAQELAILSQTPENTIDLSVFDLVSFGRYPYQSGWKSVTTEDQEYIQWALELTGLTELARESVAILSGGQRQRVWIAMALVQDTDILILDEPTTYLDPAHQLEILNVLKRINQEHQKTIVMTIHDINLASRFSDRVIAMKEGKIINEGTPQEVITVTGLADVFAIQAEISYHSQTQRPLVLSYELMEMELDG | not soluble
MSLNGEGAVPTLVGYGADTAIETSRRTSRPLAAPVVRKLAKELAVDLAALQRGSGAGGVITRADVLAAARGGVGAGPDVRPVHGVHARMAEKMTLSHKEIPTAKASVEVICAELLRLRDRFVSAAPEITPFALTLRLLVIALKHNVILNSTWVDSGEGPQVHVHRGVHLGFGAATERGLLVPVVTDAQDKNTRELASRVAELITGAREGTLTPAELRGSTFTVSNFGALGVDDGVPVINHPEAAILGLGAIKPRPVVVGGEVVARPTMTLTCVFDHRVVDGAQVAQFMCELRDLIESPETALLDLEGHHHHHH | soluble
MKNENENEICFIAGVGDSNGYGWGIAKELSKRNVKVIFGVWPPVYNIFIKNLESGKFDKDMIINNDNSKRMQILDVLPLDAGFDNYDDIDEDTKNNKRYNNLKNYSIEEVANLIYNKYGKISMLVHSLANGREVQKSLLDTSRDGYLDAISKSSYSLISLCKHFCKFMNSGGSVVSLTYQASQKVVPGYGGGMSSAKAALESDTRVLAYYLGRKYNIRINTISAGPLKSRAATAINKFNNNQKNNMNSSGETDKQNYSFIDYAIDYSEKYAPLKKKLLSTDVGSVASFLLSKESSAVTGQTIYVDNGLNIMFGPDDLFQSSDS | soluble
MLIKRLAFAIMTLVIMTSAGCGFKLQRSYQIPEQLNQLSLSSSDEYSELTRLVRERLRLNNVKIVDAANDVPVLRLITDSLERSTLSLYPTGNVAEYELIYFVEFAVALPGKEAQPFKIEIRRDYLDDPRTALAKSREMELLVKEMRIQAADRILQSMASTEVNLEHHHHHH | soluble
MIIEFLKKLLAGTPETVPAKETKRMTKVLVLYYSSYGHIETMAYAVAEGVESTGAEAVVKRVPELVPEEVAKSSHFKMDQPAPVATVDELAEYDAIIVGAGTRFGTVASQMRNFWDQTGGLWFSGKLVGKVGSAFTSSATQHGGQESTILGFIPTFLHHGMAVVGLPYAFQGQMGVDEIKGGSPYGASTITDGDGSRQPSAIELDAARYQGAHVAKLAAKLSA | not soluble
MGHHHHHHSHRLSPRDEYKPLDLSDSTLSYTETEATNSLITAPGEFSDASMSPDATKPSHWCSVAYWEHRTRVGRLYAVYDQAVSIFYDLPQGSGFCLGQLNLEQRSESVRRTRSKIGFGILLSKEPDGVWAYNRGEHPIFVNSPTLDAPGGRALVVRKVPPGYSIKVFDFERSGLQHAPEPDAADGPYDPNSVRISFAKGWGPCYSRQFITSCPCWLEILLNNPR | soluble
